Measurements taken from patent publication US12411143B2, “CD146 and uses thereof as a biomarker and as a therapeutic target in the diagnosis and treatment of fibrosis” (ASSISTANCE PUBLIQUE HÔPITAUX DE MARSEILLE, priority 2018, dated 2025).

Columns and labels:
ECFC [1] = experiment: mRNA expression of sCD146 isoforms in ECFC (qPCR); format: cell-based, human; settings: for expression of short CD146, long CD146, I5-13-sCD146 and I10-sCD146 at the mRNA level: endothelial cells treated with recombinant proteins
Method: C: The mRNA expression of I10-sCD146 and I5-13-sCD146 isoforms was analyzed by qPCR in ECFC after treatment of the cells for 24 h with the recombinant shed soluble CD146 50 ng/ml, VEGF 20 ng/ml, TNF 20 ng/ml, TGF beta 5 ng/ml, and netrin 50 ng/ml. Cells were also treated for 15 min with WNT5a 200 ng/ml and 1 h with WNT3a 50 ng/ml. Results are the mean values +/−SEM of 3 experiments. *: P<0.05, experimental vs Control.
Total cellular RNA was isolated from cells, reverse transcribed into cDNA and the resulting cDNA was subjected to qPCR.

[2] = tested on: b-catenin/TCF transcription activity; experiment: b-catenin/TCF transcription assay (luciferase) in Mouse Embryonic Fibroblasts; format: cell-based; settings: MEF from CD146 KO mice treated with bleomycin
Method: B: Activation of canonical Wnt signalling (b-catenin/TCF transcription activity; Luciferase assay) was estimated in Mouse Embryonic Fibroblasts (MEF) from CD146 KO and WT mice. MEF were treated or not with bleomycin in the presence or absence of shed sCD146, I5-13-sCD146 or I10-sCD146. Results are the mean values +/−SEM of 5 independent experiments.
HUVEC were obtained as previously described and were cultured in EGM2 medium (Kaspi et al., 2017). MEF (Mouse Embryonic Fibroblasts) were isolated from day 13. Embryos from CD146 KO or WT mice were isolated and cultured as previously described (Xu J., 2005).
Luciferase assay was performed as previously described (Kaspi et al., 2017).

[3] = tested on: mouse ischemic hind limb model; experiment: Mouse hind limb ischemia model; format: in vivo; settings: for blood flow (laser-Doppler): 2 μg locally twice a week for 28 days; for blood flow (laser-Doppler) / vascularisation of muscle (isolectin B4 labelling): compared to PBS; for vascularisation of muscle (isolectin B4 labelling): 28 days after surgery; for number of vessels in the legs (angiography pictures) / vessel density in calf, thigh and whole leg (angiography quantification): D28, compared to PBS
Method: A: Ischemic mice were treated with PBS or 2 μg of rh-sCD146/rh-I10-sCD146/rh-I5-13-sCD146 or VEGF. Blood perfusion rate was monitored by laser-Doppler. Results are mean values of 6 different animals in each group and expressed as % of the control leg. *, **, ***: P<0.05, P<0.01, P<0.001, I10-sCD146 vs. PBS; $$, $$$: P<0.01, P<0.001, I5-13-sCD146 vs. PBS; ##, ###: P<0.01, P<0.001, shed sCD146 vs. PBS; £: P<0.05, VEGF vs. PBS.
B: Blood vessels examination in hind limb muscle sections from control (PBS) and shed rh-sCD146/rh-I10-sCD146/rh-I5-13-sCD146 treated animals 28 days after surgery. Vessels are labelled with isolectin B4.**, ***: P<0.01, P<0.001, experimental vs control. $: P<0.05, I10-sCD146 vs I5-13-sCD146.
C: Angiographic pictures of control (PBS) and shed sCD146/I10-sCD146/I5-13-sCD146 treated animals at D28. Pictures are representative of the 6 animals in each group. Average of the density of the vessels was expressed as right versus left leg in the different parts of the legs (calf, thigh) and in the whole leg. *, **: P<0.01, P<0.001 experimental vs PBS in calf; $: P<0.05, experimental vs PBS in thigh; #, ##: P<0.05, P<0.01, experimental vs PBS in whole leg.
In sections of muscles from ischemic mice, vascularisation was visualized with isolectin B4 (Lifetechnologies) ( 1/100). Tissue sections were examined by fluorescence microscopy (Leica sp5, Leica, Nanterre, France).
Female mice were subjected to unilateral hind limb ischemia by complete resection of the entire left femoral artery. After surgery, animals were split in four treatment groups: one control group injected in ischemic adductor muscles twice a week with PBS for 28 days; three experimental groups treated as the control groups with the three different recombinant human soluble CD146 (rh-sCD146, rh-I5-13-sCD146, rh-I10-sCD146) 2 μg.
The ratio of the ischemic versus normal hind limb blood flow was measured using a laser doppler blood flow analyzer. At different time points post-surgery (days 1, 3, 7, 14, 21 and 28), animals were subjected to 3 consecutive laser scannings over the regions of interest (leg and feet). Blood flow was expressed as the ischemic versus normal hind limb ratio.
The animals were deeply anesthetised with mix of Ketamine Xylasine (100 mg/kg and 10 mg/kg respectively) and perfused intracardially with 2 ml of lipiodole. CT 3D images were obtained with a microPET/microCT rodent model scanner (nanoPET/CTO, Mediso) with features below: 70 kVp energy, exposure time of 300 ms and 720 projections and were quantified.

ECFC [4] = experiment: Endothelial cell tube formation in spheroids; format: cell-based, human; settings: recombinant proteins 50 ng/ml
Method: E: Effect of recombinant proteins I10-sCD146, I5-13-sCD146 and shed sCD146 50 ng/ml on the number of sprouts, branched points and cumulative sprout length in spheroid experiments realized with ECFC. Results were compared to VEGF 20 ng/ml and complete EGM2-MV medium.
Formation of spheroid experiments was performed as previously described (Korff T. et al., 2001).

ECFC [5] = experiment: ECFC proliferation assay; format: cell-based, human; settings: recombinant proteins 50 ng/ml, in the presence of GM6001 10 μM
Method: A: Effect of siRNA targeting I10-sCD146 and I5-13-sCD146 on proliferation of ECFC. Experiments were performed in the presence of GM6001 10 μM. Results are mean values of 4 different experiments and representative pictures of the cells in one experiment are given.
B: Effect of over-expression of I10-sCD146 (p-I10-sCD146), I5-13-sCD146 (p-I5-13-sCD146) and shed sCD146 (p-shed sCD146) realized by plasmid transfection on proliferation of ECFC. Experiments were performed in the presence of GM6001 10 μM.
C: Effect of recombinant proteins I10-sCD146, I5-13-sCD146 and shed sCD146 50 ng/ml on the proliferation of ECFC. Experiments were performed in the presence of GM6001 10 μM. Results are mean values of 4 different experiments.
Experiments were performed as previously described (Stalin et al., 2013).

## sCD146: recombinant human soluble form of CD146 corresponding to the shed sCD146, obtained from Biocytex
ECFC [1]; ECFC, 24 h treatment (WNT5a 15 min, WNT3a 1 h)
  I5-13-sCD146 mRNA level: not modified
[2]
  b-catenin/TCF transcription activity: decreased b-catenin/TCF transcription activity
[3]
  blood flow (laser-Doppler): able to increase blood flow
  vascularisation of muscle (isolectin B4 labelling): vascularisation was increased
  number of vessels in the legs (angiography pictures): increase in the number of vessels
  vessel density in calf, thigh and whole leg (angiography quantification): significantly increased
ECFC [4]
  pseudo-capillary generation (number of sprouts, cumulative sprout length): increased the ability to generate pseudo-capillaries
ECFC [5]
  endothelial cells proliferation: increased endothelial cells proliferation

B1: rh-I5-13-sCD146: recombinant spliced variant of soluble CD146 containing introns 5 and 13, SEQ ID NO: 8 (protein, listed as Homo sapiens)
chain: MVYIVRQFLLYNVSGSVYLDQLIVLLTAKFSILRIAGSRVHHSPFSGHLDGCSFLSLQHSLHTSLDMSRHENVFLGLTLSSKSAGLKGFQLAFVPGLLQGTGGYLDGPLPTPVDNPRVGLEVGLRLSLPPLPPCPGVHIQSSQTVESSGLYTLQSILKAQLVKEDKDAQFYCELNYRLPSGNHMKESREVTVPVFYPTEKVWLEVEPVGMLKEGDRVEIRCLADGNPPPHFSISKQNPSTREAEEETTNDNGVLVLEPARKEHSGRYECQGLDLDTMISLLSEPQELLVNYVSDVRVSPAAPERQEGSSLTLTCEAESSQDLEFQWLREETGQVLERGPVLQLHDLKREAGGGYRCVASVPSIPGLNRTQLVNVAIFGPPWMAFKERKVWVKENMVLNLSCEASGHPRPTISWNVNGTASEQDQDPQRVLSTLNVLVTPELLETGVECTASNDLGKNTSILFLELVNLTTLTPDSNTTTGLSTSTASPHTRANSTSTGKPGLAREQGCARASFLPCPSPESPVQKGE
ECFC [1]
  expression of short CD146, long CD146, I5-13-sCD146 and I10-sCD146 at the mRNA level: did not modify the expression
[2]
  b-catenin/TCF transcription activity: increased it
[3]
  blood flow (laser-Doppler): able to increase blood flow
  vascularisation of muscle (isolectin B4 labelling): vascularisation was increased
  number of vessels in the legs (angiography pictures): increase in the number of vessels
  vessel density in calf, thigh and whole leg (angiography quantification): significantly increased
ECFC [4]
  pseudo-capillary generation (number of sprouts, cumulative sprout length): increased the ability to generate pseudo-capillaries
ECFC [5]
  endothelial cells proliferation: increased endothelial cells proliferation

B2: rh-I10-sCD146: recombinant spliced variant of soluble CD146 containing intron 10, SEQ ID NO: 9 (protein, listed as Homo sapiens)
chain: MGLPRLVCAFLLAACCCCPRVAGVPGEAEQPAPELVEVEVGSTALLKCGLSQSQGNLSHVDWFSVHKEKRTLIFRVRQGQGQSEPGEYEQRLSLQDRGATLALTQVTPQDERIFLCQGKRPRSQEYRIQLRVYKAPEEPNIQVNPLGIPVNSKEPEEVATCVGRNGYPIPQVIWYKNGRPLKEEKNRVHIQSSQTVESSGLYTLQSILKAQLVKEDKDAQFYCELNYRLPSGNHMKESREVTVPVFYPTEKVWLEVEPVGMLKEGDRVEIRCLADGNPPPHFSISKQNPSTREAEEETTNDNGVLVLEPARKEHSGRYECQGLDLDTMISLLSEPQELLVNYVSDVRVSPAAPERQEGSSLTLTCEAESSQDLEFQWLREETGQVLERGPVLQLHDLKREAGGGYRCVASVPSIPGLNRTQLVNVAIFGEALPLGRDQVTPSGVVFKLFDKKPPAALGSSGAEGEAG
ECFC [1]
  expression of short CD146, long CD146, I5-13-sCD146 and I10-sCD146 at the mRNA level: did not modify the expression
[2]
  b-catenin/TCF transcription activity: decreased b-catenin/TCF transcription activity
[3]; 2 μg locally twice a week
  time after first injection at which a significant effect on blood flow was observed: 3 days
[3]
  blood flow (laser-Doppler): able to increase blood flow
  vascularisation of muscle (isolectin B4 labelling): vascularisation was increased
  number of vessels in the legs (angiography pictures): increase in the number of vessels
  vessel density in calf, thigh and whole leg (angiography quantification): significantly increased
ECFC [4]
  pseudo-capillary generation (number of sprouts, cumulative sprout length): increased the ability to generate pseudo-capillaries
ECFC [5]
  endothelial cells proliferation: increased endothelial cells proliferation
